Literature values as cited in patent US20030166570A1, “Peptide and its use in the treatment of hyperpigmentation conditions” (priority 2001, published 2003).
Ends that are not written are not given here.

Target: MC-1 receptor (Homo sapiens, UniProt Q01726)
Settings: rank order; physiologic range for signal transduction

Chain of MC-1 receptor (Q01726 whole entry): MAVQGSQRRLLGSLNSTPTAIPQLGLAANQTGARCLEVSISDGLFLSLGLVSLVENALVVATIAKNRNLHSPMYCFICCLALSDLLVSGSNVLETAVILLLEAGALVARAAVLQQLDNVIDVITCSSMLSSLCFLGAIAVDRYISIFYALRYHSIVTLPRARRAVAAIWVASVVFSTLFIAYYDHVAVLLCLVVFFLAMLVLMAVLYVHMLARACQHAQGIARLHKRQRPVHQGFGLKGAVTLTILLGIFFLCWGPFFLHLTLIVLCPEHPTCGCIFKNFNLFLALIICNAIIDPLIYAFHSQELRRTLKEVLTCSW

relative affinities for the MC-1 receptor and stimulation of cAMP | Substance
ACTH 1-17=α-MSH>ACTH | Ac-Ser^1-Tyr^2-Ser^3-Met^4-Glu^5-His^6-Phe^7-Arg^8-Trp^9-Gly^10-Lys^11-Pro^12-Val^13-NH2 [α-MSH]
ACTH 1-17=α-MSH>ACTH | ACTH: 39-mer polypeptide hormone expressed in skin melanocytes and keratinocytes, derived from POMC (SYSMEHFRWGKPVGKKRRPVKVYPNGAEDESAEAFPLEF-NH2; UniProt P01189 138-176, looked up)
no activity | ACTH 1-10: peptide fragment defined by residues 1-10 of ACTH
